From the supplement of paper PMC5998384

Key:
HeLa Kyoto [1] = assay: solubility in G1/S (NP-40 vs SDS abundance) (log2 ratio); higher = more soluble; conditions: cell cycle stage: G1/S
HeLa Kyoto [2] = assay: melting temperature (median over replicates), in situ; higher = more thermally stable
HeLa Kyoto [3] = assay: solubility change mitosis vs G1/S (difference of NP-40 vs SDS log2 ratios) (log2 ratio difference); higher = more soluble in mitosis
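Throughout, for melting temperature (median over replicates), in situ: HeLa Kyoto cells synchronized by double thymidine or nocodazole block, proteins quantified by TMT10plex mass spectrometry, three independent biological replicates.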
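Throughout, for solubility change mitosis vs G1/S (difference of NP-40 vs SDS log2 ratios): synchronized HeLa Kyoto cells (double thymidine block for G1/S, nocodazole release for mitosis), protein amounts in NP-40 versus SDS lysates quantified by mass spectrometry, three biological replicates.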
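Throughout, for solubility in G1/S (NP-40 vs SDS abundance): HeLa Kyoto cells arrested at G1/S by double thymidine block, proteins quantified by TMT10plex mass spectrometry in mild NP-40 versus SDS extracts, three biological replicates.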

Sequence	solubility in G1/S (log2) (HeLa Kyoto [1])	melting temperature (HeLa Kyoto [2]; cell cycle stage: G1/S) [°C]	melting temperature (HeLa Kyoto [2]; cell cycle stage: mitosis) [°C]	solubility change mitosis (log2) (HeLa Kyoto [3])
MEGQSVEELLAKAEQDEAEKLQRITVHKELELQFDLGNLLASDRNPPTGLRCAGPTPEAELQALARDNTQLLINQLWQLPTERVEEAIVARLPEPTTRLPREKPLPRPRPLTRWQQFARLKGIRPKKKTNLVWDEVSGQWRRRWGYQRARDDTKEWLIEVPGNADPLEDQFAKRIQAKKERVAKNELNRLRNLARAHKMQLPSAAGLHPTGHQSKEELGRAMQVAKVSTASVGRFQERLPKEKVPRGSGKKRKFQPLFGDFAAEKKNQLELLRVMNSKKPQLDVTRATNKQMREEDQEEAAKRRKMSQKGKRKGGRQGPGGKRKGGPPSQGGKRKGGLGGKMNSGPPGLGGKRKGGQRPGGKRRK [RRS1]	-1.81	55.2	53	1.09
MELERIVSAALLAFVQTHLPEADLSGLDEVIFSYVLGVLEDLGPSGPSEENFDMEAFTEMMEAYVPGFAHIPRGTIGDMMQKLSGQLSDARNKENLQPQSSGVQGQVPISPEPLQRPEMLKEETRSSAAAAADTQDEATGAEEELLPGVDVLLEVFPTCSVEQAQWVLAKARGDLEEAVQMLVEGKEEGPAAWEGPNQDLPRRLRGPQKDELKSFILQKYMMVDSAEDQKIHRPMAPKEAPKKLIRYIDNQVVSTKGERFKDVRNPEAEEMKATYINLKPARKYRFH [CUEDC2]	0.417	46.8	51.7	0.134
MELHILEHRLQVASVAKESIPLFTYGLIKLAFLSSKTRCKFFSLTETPEDYTIIVDEEGFLELPSSEHLSVADATWLALNVVSGGGSFSSSQPIGVTKIAKSVIAPLADQNISVFMLSTYQTDFILVRERDLPFVTHTLSSEFTILRVVNGETVAAENLGITNGFVKPKLVQRPVIHPLSSPSNRFCVTSLDPDTLPAVATLLMDVMFYSNGVKDPMATGDDCGHIRFFSFSLIEGYISLVMDVQTQQRFPSNLLFTSASGELWKMVRIGGQPLGFDECGIVAQISEPLAAADIPAYYISTFKFDHALVPEENINGVISALKVSQAEKH [GATSL2]	0.084	56.4	57.8	-0.149
MELIQDTSRPPLEYVKGVPLIKYFAEALGPLQSFQARPDDLLINTYPKSGTTWVSQILDMIYQGGDLEKCNRAPIYVRVPFLEVNDPGEPSGLETLKDTPPPRLIKSHLPLALLPQTLLDQKVKVVYVARNPKDVAVSYYHFHRMEKAHPEPGTWDSFLEKFMAGEVSYGSWYQHVQEWWELSRTHPVLYLFYEDMKENPKREIQKILEFVGRSLPEETMDFMVQHTSFKEMKKNPMTNYTTVPQELMDHSISPFMRKGMAGDWKTTFTVAQNERFDADYAEKMAGCSLSFRSEL [SULT1A3]	0.432	48.5	49.2	-0.174
MELIQDTSRPPLEYVKGVPLIKYFAEALGPLQSFQARPDDLLISTYPKSGTTWVSQILDMIYQGGDLEKCHRAPIFMRVPFLEFKAPGIPSGMETLKDTPAPRLLKTHLPLALLPQTLLDQKVKVVYVARNAKDVAVSYYHFYHMAKVHPEPGTWDSFLEKFMVGEVSYGSWYQHVQEWWELSRTHPVLYLFYEDMKENPKREIQKILEFVGRSLPEETVDFVVQHTSFKEMKKNPMTNYTTVPQEFMDHSISPFMRKGMAGDWKTTFTVAQNERFDADYAEKMAGCSLSFRSEL [SULT1A1]	0.0556		49.2	-0.0949
MEPPNLYPVKLYVYDLSKGLARRLSPIMLGKQLEGIWHTSIVVHKDEFFFGSGGISSCPPGGTLLGPPDSVVDVGSTEVTEEIFLEYLSSLGESLFRGEAYNLFEHNCNTFSNEVAQFLTGRKIPSYITDLPSEVLSTPFGQALRPLLDSIQIQPPGGSSVGRPNGQS [DESI1]	0.341	47.1	48.4	-0.0645
MEQAPNMAEPRGPVDHGVQIRFITEPVSGAEMGTLRRGGRRPAKDARASTYGVAVRVQGIAGQPFVVLNSGEKGGDSFGVQIKGANDQGASGALSSDLELPENPYSQVKGFPAPSQSSTSDEEPGAYWNGKLLRSHSQASLAGPGPVDPSNRSNSMLELAPKVASPGSTIDTAPLSSVDSLINKFDSQLGGQARGRTGRRTRMLPPEQRKRSKSLDSRLPRDTFEERERQSTNHWTSSTKYDNHVGTSKQPAQSQNLSPLSGFSRSRQTQDWVLQSFEEPRRSAQDPTMLQFKSTPDLLRDQQEAAPPGSVDHMKATIYGILREGSSESETSVRRKVSLVLEKMQPLVMVSSGSTKAVAGQGELTRKVEELQRKLDEEVKKRQKLEPSQVGLERQLEEKTEECSRLQELLERRKGEAQQSNKELQNMKRLLDQGEDLRHGLETQVMELQNKLKHVQGPEPAKEVLLKDLLETRELLEEVLEGKQRVEEQLRLRERELTALKGALKEEVASRDQEVEHVRQQYQRDTEQLRRSMQDATQDHAVLEAERQKMSALVRGLQRELEETSEETGHWQSMFQKNKEDLRATKQELLQLRMEKEEMEEELGEKIEVLQRELEQARASAGDTRQVEVLKKELLRTQEELKELQAERQSQEVAGRHRDRELEKQLAVLRVEADRGRELEEQNLQLQKTLQQLRQDCEEASKAKMVAEAEATVLGQRRAAVETTLRETQEENDEFRRRILGLEQQLKETRGLVDGGEAVEARLRDKLQRLEAEKQQLEEALNASQEEEGSLAAAKRALEARLEEAQRGLARLGQEQQTLNRALEEEGKQREVLRRGKAELEEQKRLLDRTVDRLNKELEKIGEDSKQALQQLQAQLEDYKEKARREVADAQRQAKDWASEAEKTSGGLSRLQDEIQRLRQALQASQAERDTARLDKELLAQRLQGLEQEAENKKRSQDDRARQLKGLEEKVSRLETELDEEKNTVELLTDRVNRGRDQVDQLRTELMQERSARQDLECDKISLERQNKDLKTRLASSEGFQKPSASLSQLESQNQLLQERLQAEEREKTVLQSTNRKLERKVKELSIQIEDERQHVNDQKDQLSLRVKALKRQVDEAEEEIERLDGLRKKAQREVEEQHEVNEQLQARIKSLEKDSWRKASRSAAESALKNEGLSSDEEFDSVYDPSSIASLLTESNLQTSSC [CGN]	-0.601	53.6	53.6	0.648
MFAKLKKKIAEETAVAQRPGGATRIPRSVSKESVASMGADSGDDFASDGSSSREDLSSQLLRRNEQIRKLEARLSDYAEQVRNLQKIKEKLEIALEKHQDSSMRKFQEQNETFQANRAKMAEGLALALARKDQEWSEKMDQLEKEKNILTAQLQEMKNQSMNLFQRRDEMDELEGFQQQELSKIKHMLLKKEESLGKMEQELEARTRELSRTQEELMNSNQMSSDLSQKLEELQRHYSTLEEQRDHVIASKTGAESKITALEQKEQELQALIQQLSIDLQKVTAETQEKEDVITHLQEKVASLEKRLEQNLSGEEHLQELLKEKTLAEQNLEDTRQQLLAARSSQAKAINTLETRVRELEQTLQASEEQLQQSKGIVAAQETQIQELAAANQESSHVQQQALALEQQFLERTQALEAQIVALERTRAADQTTAEQGMRQLEQENAALKECRNEYERSLQNHQFELKKLKEEWSQREIVSVAMAQALEEVRKQREEFQQQAANLTAIIDEKEQNLREKTEVLLQKEQEILQLERGHNSALLQIHQLQAELEALRTLKAEEAAVVAEQEDLLRLRGPLQAEALSVNESHVTSRAMQDPVFQLPTAGRTPNGEVGAMDLTQLQKEKQDLEQQLLEKNKTIKQMQQRMLELRKTLQKELKIRPDNELFEVREKPGPEMANMAPSVTNNTDLTDAREINFEYLKHVVLKFMSCRESEAFHLIKAVSVLLNFSQEEENMLKETLEYKMSWFGSKPAPKGSIRPSISNPRIPWS [GOLGA1]	0.556	49.5		0.0219
MFPRPLTPLAAPNGAEPLGRALRRAPLGRARAGLGGPPLLLPSMLMFAVIVASSGLLLMIERGILAEMKPLPLHPPGREGTAWRGKAPKPGGLSLRAGDADLQVRQDVRNRTLRAVCGQPGMPRDPWDLPVGQRRTLLRHILVSDRYRFLYCYVPKVACSNWKRVMKVLAGVLDSVDVRLKMDHRSDLVFLADLRPEEIRYRLQHYFKFLFVREPLERLLSAYRNKFGEIREYQQRYGAEIVRRYRAGAGPSPAGDDVTFPEFLRYLVDEDPERMNEHWMPVYHLCQPCAVHYDFVGSYERLEADANQVLEWVRAPPHVRFPARQAWYRPASPESLHYHLCSAPRALLQDVLPKYILDFSLFAYPLPNVTKEACQQ [CHST14]	0.333	51.9		-0.0549
